Reference: patent US20250000904A1

Assays:
Assay in all cases: cell-based or functional assay
[1] = target: TGFβR2-IL2Rβ signaling redirector receptor
[2] = target: TGFβR2-IL21Rβ signaling redirector receptor
[3] = target: TGFβR2-IL12Rβ signaling redirector receptor
TGFβR2-IL12Rβ signaling redirector receptor, sequence (main, as listed by the source): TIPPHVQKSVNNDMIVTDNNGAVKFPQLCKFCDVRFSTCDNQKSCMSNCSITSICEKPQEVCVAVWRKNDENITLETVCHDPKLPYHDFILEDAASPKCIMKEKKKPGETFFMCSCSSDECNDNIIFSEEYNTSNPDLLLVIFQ

TGFβR2-IL21Rβ signaling redirector receptor, sequence (chain, as listed by the source): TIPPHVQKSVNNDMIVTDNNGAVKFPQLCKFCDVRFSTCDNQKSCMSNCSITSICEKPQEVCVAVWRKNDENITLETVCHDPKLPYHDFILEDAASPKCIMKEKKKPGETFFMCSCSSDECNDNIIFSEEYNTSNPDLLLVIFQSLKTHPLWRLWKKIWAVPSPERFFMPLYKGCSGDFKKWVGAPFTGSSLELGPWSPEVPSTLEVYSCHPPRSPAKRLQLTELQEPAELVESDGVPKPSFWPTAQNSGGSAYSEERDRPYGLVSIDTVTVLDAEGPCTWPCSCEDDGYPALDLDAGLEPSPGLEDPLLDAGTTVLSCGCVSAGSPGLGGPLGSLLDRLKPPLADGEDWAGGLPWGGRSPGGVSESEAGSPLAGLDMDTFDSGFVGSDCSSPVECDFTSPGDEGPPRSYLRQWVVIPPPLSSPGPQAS
TGFβR2-IL2Rβ signaling redirector receptor, sequence (chain, as listed by the source): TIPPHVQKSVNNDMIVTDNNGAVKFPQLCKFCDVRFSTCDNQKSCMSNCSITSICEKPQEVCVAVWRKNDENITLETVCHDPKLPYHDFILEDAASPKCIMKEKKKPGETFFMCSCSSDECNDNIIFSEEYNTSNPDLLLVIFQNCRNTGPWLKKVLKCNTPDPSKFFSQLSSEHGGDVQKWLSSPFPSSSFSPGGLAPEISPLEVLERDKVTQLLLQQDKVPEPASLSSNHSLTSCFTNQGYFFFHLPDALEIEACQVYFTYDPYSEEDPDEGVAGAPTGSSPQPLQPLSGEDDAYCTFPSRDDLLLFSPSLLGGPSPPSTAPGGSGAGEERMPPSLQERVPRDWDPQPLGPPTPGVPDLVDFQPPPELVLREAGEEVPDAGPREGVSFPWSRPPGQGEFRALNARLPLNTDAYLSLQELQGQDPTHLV

increase in tumor cell numbers over base input after three rounds of restimulation, with recombinant TGFβ [1]: 1.5 fold | increase in tumor cell numbers over base input after three rounds of restimulation, with recombinant TGFβ [2]: 1.5 fold | increase in tumor cell numbers over base input after three rounds of restimulation, with recombinant TGFβ [3]: 1.5 fold
Substance: recombinant TGFβ (ligand)
